For this assay, the target named is T1, SARS-CoV-2 Nucleocapsid protein, His Tag (SARS-CoV-2, UniProt P0DTC9 1-419).
T1 construct: Bought
In words: ELISA, His-tagged viral protein captured on nickel plates (6.25-50 pmol/mL).

The values below come from patent US20240123029A1 (HUMANITAS MIRASOLE S P A, published 2024).

B1: Purified C-reactive protein (CRP) (other)
chain: QTDMSRKAFVFPKESDTSYVSLKAPLTKPLKAFTVCLHFYTELSSTRGYSIFSYATKRQDNEILIFWSKDIGYSFTVGGSEILFEVPEVTVAPVHICTSWESASGIVEFWVDGKPRVRKSLKKGYTVGAEASIILGQEQDSFGGNFEGSQSLVGDIGNVNMWDFVLSPDEINTIYLGGPFSPNVLNWRALKYEVQGEVFTKPQLWP
Turning to B1, the binding result is “no binding (tested: CRP 3 µg/mL (25 nM))”.
